This note sets out measurements from US20140080766.

The data set concerns E6N2 (E6 Fn3-mouse IgG2a Fc-human PKR dsRBD fusion, homodimer) C121V,C135V (in dsRBD) (Homo sapiens). Nature of the data set: flow. The note with it: KD,app; E6N2 on Protein A beads; DMEM+10% FBS, 37 C, 1 h; pH presumably 7.4; avidity from bivalent dsRBD.

With “AllStars Negative Control siRNA (Qiagen)”, the Kd came to 3.5 nM.
